To fix the notation:
B1: EBOV-524 (antibody, V domains shown)
VH: QVQLVESGGGVVQPGGSLRLSCAASGFKFSTYGMNWVRQVPGQGLEWVSFVRHDGSNKYYSDSVKGRFTIFRDNSNNKLYLQMNNLRAEDTAVYYCAKDVLDCSRADCFIYYYYMDVWGKGTLVTVSS
VL: DIQMTQSPSSVSASPGDRVTITCRASQTISGWLAWYQQKPGKAPKLLIYDVSTLQSGVPSRFSGGGSGTEFTFTISSLQPEDYATYFCQQGNRIPLSFGGGTRVEIK
B2: EBOV-508 (antibody, V domains shown)
VH: QVQLVQSGAEVKKPGASVKVSCKASGYTFINYYMHWVRQAPGQGLEWMGTINPSTGRPNYAQKFQGRVTLTRDTSTTTVDMELSSLTSEDTAVYYCVSFQFYFDYWGQGTLVTVSS
VL: DIQMTQSPSAMSPSVGDRVTITCRASQGINNYLAWFQQKPGKVPKRLIYAASNLQSGVPSRFSGSGSGTEFTLTISSLQPEDFATYYCLQHNSYPWTFGQGTKVEIN
B3: EBOV-517 (antibody, V domains shown)
VH: EVQLVESGGGLVQPGGSLRLSCGASGFTFNKYWMTWVRQAPGKGLEWVANINQDGSEKYFAESVKGRFTVSRDNAKNSLYLQMNSLRAEDTAVYYCARGASIEVEILYYYHMDVWGKGTLVTVSS
VL: EIVMTQSPATLSVSPGERATLSCRASQSITTHLAWYQQKPGQAPRLLIYDTSTRATGIPARFSGSGSGTEFTLTISNMQSEDFAVYYCQQYHTWPPLTFGGGTKVEIK
B4: EBOV-446 (antibody, V domains shown)
VH: QVQLVQSGAEVKKPGASVKVSCKASGYTFTDYYIYWVRQAPGQGLEWMGWLNPNSGGTDYAQKFQGRVTMTRDTSIRTAYMDLSRLRSDDTAVYYCARGRRHGAYVDWGQGTLVTVSS
VL: DIQLTQSPSFLSASVGDRVTITCRASQGISTYLAWYQQKPGKAPNLLIYDTSTLQSGVPSRFSGSASGTEFTLTISSLQPEDFATYYCQQLNFYLGGLTFGQGTRLEIK
B5: EBOV-510 (antibody, V domains shown)
VH: QVQLQESGPGLVKPSQTLSLTCTVSGGSITSGDYYLTWVRQPPGKGLEWIGHIYYSGSTSYNPSLKSRLLMSVDTSKNQFSLRLSSVTAADTAVYYCARESDGDPSRLYFYFAMDVWGQGTLVTVSS
VL: QSALTQPASVSGSPGQSITISCTGTSSDVGGSYFVSWYQHHPGKAPKLMISEVSNRPSGVSNRFSGSKSGNTASLTISGLRTEDEADYYCSSYTSNTTLVFGGETKVTVL
B6: EBOV-442 (antibody, V domains shown)
VH: EVQLVESGGGLVKPGGSLRLSCTGSGGTGFTFKYAGMSWVRQAPGKGPEWIGRIKSRIDGGTTDYAAPVKDRFIVSRDDSRNTLYLQMNSLKTEDTAVYYCATGSGKGPSASFGESYYYYDFINVWGKGTTVTVSS
VL: ESVLTQSPGTLSLSPGERATLSCRASQSISRKYLAWYQQKPGQAPRLLIYGSSSRATGIPDRFSGSGSGTDFTLTISRLEPEDFAVYYCHQYESSPWTFGQGTKVEIK
B7: EBOV-518 (antibody, V domains shown)
VH: QVTLKESGPTLVKPTQTLTLTCTFSGFSMNSSGMSVTWIRQPPGKALECLALIYWDDDKWYGPSLETRVTITKDASKNQVVLTMTNMDPVDTATYYCAHSGGLVAGAFDYWGQGTLVTVSS
VL: EIVMTQSPDSLTVSLGERATINCRSSQSVLYRVNSKNYLAWYQQKAGQTPKLIINWASTRESGVPDRFSGSGSGTDFTLTISSLQAEDVAVYYCQQYYNSPRTFGQGTKVEIK
B8: EBOV-507 (antibody, V domains shown)
VH: QVQLVQSGAEVKKPGASVKVSCKASGYTFNNYLINWVRQAPGQGLEWMGWINPHSGGTEYAQQFQGRLTVTRDTSIRTAYMELRGLTFDDSAMYYCWIWFRSETFDFWGQGTLVTVSS
VL: DIQMTQSPSAMSASVGDRVTITCRASQDISNYLAWFQQKPGQGPKRLIFEASILHSGVPSRFSGSGSGTEFTLTISSLQPEDFATYYCLQHNTYLTFGQGTKVEIK
B9: EBOV-451 (antibody, V domains shown)
VH: EVQLVESGGSVVRPGGSLRLSCAASGFKFDEYGMSWVRQAPGKGLEWVSGITWNGGVRTYADSVKGRFTISRDNAKNSVYLQMKSLRGEDTALYYCVSWGERYDAYFDYWGQGTLVTVSS
VL: EIVLTQSPGSLSLSPGERATLSCRASQSVNSRYFAWYQQRPGQAPRLLIYATSTRATGIPDRFSGSGSGTDFTLTISRLEPEDFAVYSCQQYGSSPYTFGQGTKLEIK
B10: EBOV-520 (antibody, V domains shown)
VH: QVQLQESGPGLGKPSETLSLSCTVSGASIRGYFWNWIRQPPGKGLEWIGYIHSTGSTNYNPSLKSRVTISVDTSKNQVSLNVNSVTAADTAVYFCARGAWNVATVYYYYGMDVWGQGTLVTVSS
VL: B9 VL with S10T, N30S, R32S, R40K, Y50S, A51G, T57P, S88F, S94N, P96L
B11: EBOV-511 (antibody, V domains shown)
VH: QLQLQESGPGLVKPSETLSLSCTVSGDSISANNYFWGWIRQPPGKELEWIGSIHNSGSTYYNPSLKSRVTTSVDTSRTQFSLKLHSVTAADAAIYYCARHLAPISGVIFIPSFFDSWGQGTLVTVSS
VL: EIVMTQSPATLSVSPGERATLSCRASQSVSSNLAWYQQRPGQAPRLLIFDASTRATGVPARFSGSGSGTEFTLTISSLQSEDFALYYCQQYNDWPPRLTFGGGTKVEIK
B12: EBOV-434 (antibody, V domains shown)
VH: QVQLVQSGAEVKKPGASVKVSCKASGYTFTGYYMFWVRQAPGQGLEWMGWINPNSGGTNYTQKFQGRVTMTRDTSISTAYMELSRLKSDDTAVYYCARDSGELLFVGSDVWGQGTLVTVSS
VL: DIQMTQSPSSVSASVGDRVTITCRASLDISYWLAWYQQKPGKAPKLLIYAASNLQSGVPSRFSGSGSGTDFTLTISSLQPEDFATYYCQQANSFPQTFGQGTRLELK
B13: EBOV-514 (antibody, V domains shown)
VH: QVQLQESGPGLVKPSQTLSLTCTVSGASITGGDDFWSWIRQPPGKGLEWIGFIHHSGNAYYRSSLKSRVHFSVDTSKDQFSLTLTSVTAADTAVYYCARDKAQAYGLLYHYHTDVWGKGTLVTVSS
VL: EIVMTQSPATLSVSPGERATLSCRASQSVSSNLAWYQQKPGLAPRLLIYGAFTRATDIPDRFSGSGSGTEFTLTISSLQSEDFAIYYCQYYNDWPPGYTFGQGTKLEIK

Numbering of substitutions follows the chain as printed. A value given as a limit tells only on which side of the number the result lay.

This test deals with EBOV GP on recombinant EBOV-eGFP virus (Zaire ebolavirus (EBOV)). Description: cell-based or functional assay.
Regarding B1, the Neutralization, IC50 ng/mL is more than 200000 ng/mL.
On to B2, for which the Neutralization, IC50 ng/mL is more than 200000 ng/mL.
On to B3, for which the Neutralization, IC50 ng/mL was more than 200000 ng/mL.
As to B4, the Neutralization, IC50 ng/mL was more than 200000 ng/mL.
On to B5, for which the Neutralization, IC50 ng/mL was more than 200000 ng/mL.
As for B6, the figure is 467 ng/mL; as for B7, more than 200000 ng/mL; as for B8, more than 200000 ng/mL.
With B9 the figure was more than 200000 ng/mL; with B10, 5740 ng/mL; with B11, more than 200000 ng/mL.
As for B12, the Neutralization, IC50 ng/mL was more than 200000 ng/mL.
For the molecule B13, the Neutralization, IC50 ng/mL was more than 200000 ng/mL.

For the origin of these results see US20210403538A1.
